{"source": "paper doi:10.1101/840439", "about": "(bioRxiv, 2019)", "proteins": {"B1": {"name": "BchL (L-protein of dark-operative protochlorophyllide oxidoreductase, DPOR), wild type (enzyme, Rhodobacter sphaeroides, UniProt Q9RFD6 1-297, looked up)", "chain": "MSPKDLTIPTGADGEGSVQVHLDEADKITGAKVFAVYGKGGIGKSTTSSNLSAAFSILGKRVLQIGCDPKHDSTFTLTGSLVPTVIDVLKDVDFHPEELRPEDFVFEGFNGVMCVEAGGPPAGTGCGGYVVGQTVKLLKQHHLLDDTDVVIFDVLGDVVCGGFAAPLQHADQAVVVTANDFDSIYAMNRIIAAVQAKSKNYKVRLAGCVANRSRATDEVDRFCKETNFRRLAHMPDLDAIRRSRLKKKTLFEMDEDQDVLAARAEYIRLAESLWRGLDPIDPHSLPDRDIFELLGFD"}}, "molecular_target": "the molecule itself", "test": "crystal structure", "data": [{"protein": "B1", "values": [{"measurement": "stoichiometry N", "value": 2}]}]}
